Results from article PMC6978305, “Formation of S. pombe Erh1 homodimer mediates gametogenic gene silencing and meiosis progression” (Scientific Reports, 2020).

Biological target: the molecule itself
Test: SEC-MALS; SEC-MALLS of purified recombinant proteins in solution

B1: S. pombe Erh1, wild type, recombinant (natural protein, UniProt G2TRN4 1-104, looked up)
chain: MSPPPAESHIILLIQQGSDPKTRIWSDHCSLRSAIEYIVGVYQTNQAVSEKESIDVSRFFNFFDEIYDCVPLVYDRHFRAYIPHEKQWLLHHAQEYLTAARQIP
notes: Erh1, S. pombe, full length, from plasmid pMG921 (pGEX-6P1); After 3C cleavage some residues of the N-terminal tag remain (4 of them are seen in protomer B of the crystal structure); also called wild-type Erh1; apo-Erh1; source: E. coli BL21 (DE3) Codon+, purified (GSH-sepharose, 3C cleavage, Superdex 75); not shown: GST, N-terminal, cleaved
  stoichiometry N: 2
